The supplement of paper PMC9876800

System: peptide library, one residue held at a place counted from the S/T acceptor
Test: relative phosphorylation of the sub-library (ratio to the mean residue at this position); higher = residue favoured
Conditions: human
Procedure, shortened: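 Purified recombinant kinases, either human or orthologue constructs, were incubated in 384-well plates with biotinylated degenerate peptide sub-libraries. Each sub-library fixed one residue at one position around a central Ser/Thr. Peptides at 50 μM and 50 μM ATP spiked with γ-32P-ATP were used for 90 min under kinase-specific conditions, and spots on streptavidin membranes were phosphorimaged and quantified by densitometry. Relative sub-library phosphorylation is expressed as a ratio to the mean residue at that position.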

Chain of ULK2, construct: aa1-478 (Q8IYT8 1-478, looked up): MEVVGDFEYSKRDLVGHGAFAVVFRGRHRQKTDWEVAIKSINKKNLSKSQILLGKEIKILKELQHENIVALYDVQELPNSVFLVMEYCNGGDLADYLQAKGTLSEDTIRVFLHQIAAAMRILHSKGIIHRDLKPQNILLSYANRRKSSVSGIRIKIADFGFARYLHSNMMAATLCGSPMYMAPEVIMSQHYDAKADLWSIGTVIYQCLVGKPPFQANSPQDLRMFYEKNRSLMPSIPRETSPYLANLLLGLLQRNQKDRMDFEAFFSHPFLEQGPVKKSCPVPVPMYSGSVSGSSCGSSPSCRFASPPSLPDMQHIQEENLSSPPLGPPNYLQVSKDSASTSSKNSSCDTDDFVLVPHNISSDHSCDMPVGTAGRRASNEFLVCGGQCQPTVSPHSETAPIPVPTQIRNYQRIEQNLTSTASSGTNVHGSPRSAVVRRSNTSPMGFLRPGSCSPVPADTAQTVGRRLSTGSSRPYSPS
Chain of RPS6KA2, construct: Full length (Q15349 whole entry, looked up): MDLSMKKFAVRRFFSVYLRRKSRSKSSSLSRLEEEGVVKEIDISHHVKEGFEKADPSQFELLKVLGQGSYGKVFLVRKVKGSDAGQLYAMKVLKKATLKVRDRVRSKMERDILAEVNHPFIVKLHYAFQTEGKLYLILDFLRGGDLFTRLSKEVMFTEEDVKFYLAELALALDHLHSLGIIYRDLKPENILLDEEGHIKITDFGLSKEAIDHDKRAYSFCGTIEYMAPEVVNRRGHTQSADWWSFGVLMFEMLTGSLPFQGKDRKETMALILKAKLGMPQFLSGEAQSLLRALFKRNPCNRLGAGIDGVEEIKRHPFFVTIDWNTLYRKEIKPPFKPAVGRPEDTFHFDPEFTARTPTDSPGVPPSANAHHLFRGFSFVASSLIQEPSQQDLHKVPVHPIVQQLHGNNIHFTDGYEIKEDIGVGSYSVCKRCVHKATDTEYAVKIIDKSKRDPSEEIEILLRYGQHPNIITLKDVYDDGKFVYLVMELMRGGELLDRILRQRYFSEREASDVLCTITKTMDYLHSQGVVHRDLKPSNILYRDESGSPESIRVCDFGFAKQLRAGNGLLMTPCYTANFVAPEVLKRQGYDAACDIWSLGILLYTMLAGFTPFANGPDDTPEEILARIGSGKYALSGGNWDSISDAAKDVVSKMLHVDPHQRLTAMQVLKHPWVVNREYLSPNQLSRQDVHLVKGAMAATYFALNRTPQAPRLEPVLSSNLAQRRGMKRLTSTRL

RPS6KA2, construct: Full length (from UniProt Q15349)
relative phosphorylation
Conditions | at +1 | at +2 | at +3 | at +4 | at -1 | at -2 | at -3 | at -4 | at -5
A fixed | 0.795 | 1.22 | 1.14 | 1.18 | 0.925 | 0.766 | 0.741 | 1.41 | 1.13
D fixed | 0.457 | 0.669 | 0.976 | 0.77 | 0.569 | 0.763 | 0.455 | 0.572 | 0.435
E fixed | 0.806 | 0.601 | 0.792 | 0.661 | 0.505 | 0.589 | 0.562 | 0.639 | 0.417
F fixed | 1.32 | 0.708 | 0.99 | 0.844 | 0.752 | 0.54 | 0.373 | 0.851 | 0.915
G fixed | 0.658 | 1.24 | 1.21 | 1.22 | 1.21 | 0.914 | 0.583 | 1.12 | 1.1
H fixed | 1.31 | 1.66 | 1.19 | 1.32 | 1.18 | 1.26 | 0.672 | 1.1 | 1.11
I fixed | 1.22 | 0.994 | 0.855 | 0.88 | 0.384 | 0.502 | 0.308 | 0.657 | 0.72
K fixed | 0.972 | 1.04 | 1.03 | 1.22 | 1.5 | 2.21 | 1.47 | 1.58 | 2
L fixed | 0.925 | 0.616 | 1.04 | 0.839 | 0.916 | 1.05 | 0.311 | 0.801 | 0.862
M fixed | 1.09 | 0.742 | 0.912 | 0.887 | 1.12 | 0.761 | 0.449 | 0.916 | 0.715
N fixed | 0.769 | 0.781 | 0.706 | 0.68 | 1.16 | 0.697 | 0.434 | 0.743 | 0.755
P fixed | 0.338 | 0.794 | 1.04 | 1.27 | 1.58 | 0.467 | 0.632 | 0.984 | 0.865
Q fixed | 0.925 | 0.566 | 0.717 | 0.916 | 0.861 | 0.879 | 0.603 | 0.956 | 0.702
R fixed | 0.998 | 1.82 | 1.09 | 0.886 | 1.6 | 4.34 | 8.11 | 2.03 | 3.49
V fixed | 1.75 | 1.11 | 0.92 | 0.819 | 0.683 | 0.35 | 0.365 | 0.786 | 0.713
W fixed | 1.05 | 0.973 | 1.17 | 1.44 | 0.793 | 0.409 | 0.443 | 0.954 | 0.171
Y fixed | 1.61 | 1.47 | 1.23 | 1.16 | 1.26 | 0.503 | 0.49 | 0.894 | 0.903
pThr fixed | 1 | 0.781 | 1.22 | 1.03 | 0.307 | 0.308 | 0.269 | 0.637 | 0.391
pTyr fixed | 1.55 | 1.05 | 1.25 | 0.999 | 0.657 | 0.368 | 0.555 | 0.636 | 0.526

CAMK4, construct: Full length (from UniProt Q16566)
relative phosphorylation
Conditions | at +1 | at +2 | at +3 | at +4 | at -1 | at -2 | at -3 | at -4 | at -5
A fixed | 0.518 | 0.587 | 0.723 | 0.805 | 0.66 | 0.761 | 0.61 | 0.815 | 0.598
D fixed | 0.574 | 0.588 | 0.925 | 0.978 | 0.92 | 0.327 | 0.27 | 0.479 | 0.347
E fixed | 0.727 | 0.483 | 0.846 | 0.999 | 0.722 | 0.386 | 0.404 | 0.705 | 0.364
F fixed | 3.32 | 0.95 | 1.12 | 1 | 1.02 | 0.667 | 0.559 | 1.01 | 1.75
G fixed | 0.745 | 0.525 | 0.905 | 0.847 | 0.692 | 0.573 | 0.566 | 0.861 | 0.631
H fixed | 0.86 | 1.99 | 1.19 | 1.08 | 1.18 | 1.3 | 1.32 | 1.17 | 0.781
I fixed | 0.95 | 1.24 | 0.874 | 0.837 | 0.711 | 0.484 | 0.449 | 0.865 | 1.22
K fixed | 0.738 | 0.848 | 0.896 | 0.942 | 1.35 | 2.46 | 2.9 | 1.67 | 1.02
L fixed | 0.822 | 1.25 | 1.04 | 1.06 | 1.05 | 0.547 | 0.432 | 1.01 | 1.85
M fixed | 1.23 | 1.15 | 1 | 0.978 | 0.99 | 0.783 | 0.671 | 1.17 | 1.3
N fixed | 0.977 | 1.08 | 1.21 | 1.14 | 1.36 | 1.06 | 0.723 | 0.962 | 0.651
P fixed | 0.167 | 0.652 | 0.919 | 1.24 | 1.09 | 0.38 | 0.706 | 0.642 | 0.827
Q fixed | 1.12 | 0.862 | 0.904 | 1.17 | 1.21 | 1.34 | 0.854 | 0.951 | 0.755
R fixed | 0.929 | 1.24 | 0.977 | 1.04 | 1.27 | 3.93 | 4.59 | 1.73 | 1.48
V fixed | 0.815 | 1.08 | 0.8 | 0.739 | 0.744 | 0.501 | 0.408 | 0.938 | 0.98
W fixed | 1.25 | 1.16 | 1.39 | 1.12 | 0.93 | 0.744 | 0.841 | 0.949 | 1.1
Y fixed | 1.26 | 1.33 | 1.27 | 1.03 | 1.1 | 0.756 | 0.695 | 1.09 | 1.35
pThr fixed | 0.934 | 0.905 | 0.892 | 1.02 | 0.56 | 0.621 | 0.672 | 0.718 | 0.63
pTyr fixed | 0.811 | 0.793 | 0.936 | 0.824 | 1.09 | 0.424 | 0.482 | 0.653 | 0.661

ULK2, construct: aa1-478 (from UniProt Q8IYT8)
relative phosphorylation
Conditions | at +1 | at +2 | at +3 | at +4 | at -1 | at -2 | at -3 | at -4 | at -5
A fixed | 0.728 | 0.707 | 0.906 | 0.969 | 1.08 | 1.11 | 0.982 | 1.31 | 1.38
D fixed | 0.31 | 0.349 | 0.794 | 0.811 | 1.04 | 1.1 | 0.736 | 1.16 | 1.29
E fixed | 0.365 | 0.348 | 0.775 | 0.701 | 0.927 | 1.05 | 0.599 | 0.953 | 1.08
F fixed | 1.4 | 0.962 | 0.824 | 0.652 | 0.63 | 1.14 | 0.873 | 0.616 | 0.704
G fixed | 0.631 | 0.582 | 1.39 | 1.28 | 1.09 | 1.12 | 1.24 | 1.47 | 1.23
H fixed | 0.927 | 1.62 | 1.19 | 1.17 | 0.923 | 1.31 | 0.774 | 1.05 | 1.11
I fixed | 1.49 | 1.03 | 0.872 | 0.796 | 0.637 | 0.728 | 0.739 | 0.685 | 0.679
K fixed | 0.863 | 1.09 | 1.51 | 1.43 | 1.53 | 0.703 | 0.63 | 0.968 | 1.21
L fixed | 1.07 | 0.851 | 0.858 | 0.831 | 0.788 | 0.843 | 1.54 | 0.738 | 0.748
M fixed | 1.78 | 1.08 | 0.867 | 0.938 | 1.11 | 1.11 | 2.88 | 0.946 | 0.705
N fixed | 0.665 | 0.848 | 0.895 | 1.02 | 1.12 | 1.18 | 1.12 | 1.24 | 1.16
P fixed | 0.167 | 0.441 | 0.832 | 1.28 | 0.567 | 0.492 | 0.774 | 1.19 | 1.01
Q fixed | 1.37 | 0.846 | 0.932 | 1.01 | 1.4 | 0.965 | 0.955 | 0.91 | 0.995
R fixed | 1.05 | 1.59 | 1.37 | 1.28 | 1.48 | 0.655 | 0.693 | 0.965 | 1.1
V fixed | 1.53 | 1.02 | 0.945 | 0.863 | 1.02 | 0.774 | 0.808 | 0.748 | 0.815
W fixed | 1.14 | 1.6 | 1.02 | 1.11 | 0.814 | 1.6 | 1.02 | 1.3 | 1.02
Y fixed | 1.51 | 2.04 | 1.02 | 0.854 | 0.85 | 1.12 | 0.652 | 0.761 | 0.754
pThr fixed | 0.659 | 0.378 | 0.594 | 0.749 | 0.557 | 0.6 | 0.707 | 0.833 | 0.782
pTyr fixed | 0.882 | 0.714 | 0.817 | 0.647 | 0.923 | 1.04 | 0.619 | 0.547 | 0.707
